# From US20070172470A1, “Phosphatase regulation of nucleic acid transcription” (The Regents of the University of California, priority 2003, published 2007)
# Tests used:
# [1] = tested on: T3 receptor activity on DR+4 TRE-TK-Luc reporter; assay: Luciferase reporter assay, ligand-activated T3 receptor; assay type: cell-based, human; settings: 100 nM T3, DR+4 TRE-TK-Luc
# Text: Gal4-DNA binding domain-SCP1 fusion protein expression plasmids-were cotransfected in HEK293 cells with a Gal 4-TKLuc reporter plasmid and luciferase gene expression quantitated. In all panels, results of triplicate transfections are shown +/− SD. Data is expressed as fold-activation experimental/control). […] The indicated amounts of SCP1 or mutant SCP1 expression plasmids were cotransfected in HEK293 cells along with Gal 4-VP16 expression and Gal 4-TK-Luc reporter plasmids and luciferase activity was quantitated. […] The indicated receptor expression plasmids were cotransfected with their cognate promoter-reporter plasmids with or without SCP1 or mutant SCP1 expression plasmids. Cells were treated or untreated with receptor-specific ligands as described infra. […] The indicated concentrations of SCP1 and mutant SCP1 expression plasmids were cotransfected with LMX1 and E47 expression plasmids and the rat insulin 1 promoter-luciferase reporter gene. Luciferase activity was measured as described.
# Tissue Culture and Transfections: Human 293, COS7 and CV1 cells were grown at 37° C. in DMEM supplemented with 10% normal calf serum (BRL). Sub-confluent cells were transfected in 6 well tissue culture dishes using Effectene (Qiagen) according to the manufacturer's instructions. Reporter and activator plasmids (100 ng each) and Flag SCP1 (80 ng) or its mutant were used per well. […]
# RNAP IIO = biological target: T1, RNAP IIO (Bos taurus, UniProt G3MZY8); assay: CTD phosphatase assay with RNAP IIO as substrate; assay type: biochemical, calf
# T1 construct: Calf thymus RNAP IIA was purified; from tissue; host or cells: calf thymus
# Procedure: FIGS. 2C and 2D show a CTD phosphatase assay of FCP1 and SCP1 on GST-CTDo and RNAP IIO prepared by MAPK2/ERK2. Increasing amounts of FCP1 or GST-SCP1 214 were assayed in the presence of 75 fmol GST-CTDo (lanes 1-6), 75 fmol RNAP IIO (lanes 7-12), or 75 fmol GST-CTDo and 75. fmol RNAP IIO (lanes 13-18). Both GST-CTDo and RNAP IIO substrates were prepared by the in vitro phosphorylation of CKII-labeled GST-CTDa or RNAP IIA by MAPK2/ERK2. All reactions were carried out in the presence of 7 pmol RAP74. CTD dephosphorylation of both GST-CTDo and RNAP IIO is shown by the increase in mobility of GST-CTDo to GST-CTDa and subunit IIo to IIa, respectively. The difference in the intensity of radiolabeled GST-CTDoand that of radiolabeled subunit IIo is not a reflection of a difference in the amount of substrates present, but of the higher efficiency with which CKII incorporates radiolabeled phosphates onto the most C-terminal serine of GST-CTDa compared to subunit. IIa.
# Increasing amounts of GST-SCP1 214 were assayed in the presence of 3.7 fmol RNAP IIO prepared by CTDK1/CTDK2, TFIIH, P-TEFb, MAPK2/ERK2 and Cdc2 kinase. All reactions were carried out in-the presence of 7 pmol. RAP74. CTD dephosphorylation of RNAP IIO isozymes. by qSTSCP1 214 is shown by an increase in mobility of subunit IIo to that of IIa. The results are summarized in the graph showing the percent of RNAP IIO remaining as a function of increasing SCP1 concentrations.
# Preparation and Purification of ^32P-RNAP IIO Isozymess and ^32P-GST-CTDo: Calf thymus RNAP IIA was purified by the method of Hodo and Blatti (30) with modifications as described by Kang and Dahmus (31). Specific isozymes of ^32p-labeled RNAP IIO were prepared by phosphorylation at the most C-terminal serine (CKII site) in the largest subunit of purified RNAP IIA with recombinant CKII and […], followed by CTD phosphorylation in the presence of 2 mM ATP with either purified CTDK1/CTDK2, TFIIH, P-TEFb, recombinant MAPK2/ERK2 or recombinant Cdc2 kinase. The RNAP IIO isozymes were individually purified over a DE53 column with a step elution of 500 mM KCl (28). Because only the most C-terminal serine is labeled with ^32p and lies outside. the consensus repeat, dephosphorylation by CTD phosphatase results in an electrophoretic mobility shift in SDS-PAGE of subunit IIo to the position of subunit IIa without the loss of label. Similarly, ^32P-labeled GST-CTDo was prepared from GST-CTDa by CKII followed by MAPK2/ERK2. GST-CTDo was purified over a glutathione-agarose column with a step elution of 15 mM glutathione.
# CTD phosphatase assays utilizing RNAP IIO and GST-CTDo as substrate were performed as described previously (32) with minor modifications. Reactions were performed in 20 μl of CTD phosphatase buffer (50 mM Tris-HCl, pH 7.9, 10 mM MgCl2, 20% glycerol, 0.025% Tween 80, 0.1 mM EDTA, 5 mM DTT) in the presence of 20 mM KCl. Each reaction contained specified amounts of GST-CTDo and/or RNAP IIO and was carried out in the presence of 7 pmol RAP74. Reactions were initiated by the addition of FCP1 or SCP1 and incubated at 30° C. for 30 minutes. Assays were terminated by the addition of 5× Laemmli buffer, and RNAP II subunits and GST-CTD were resolved on a 5% SDS-PAGE gel. The gel images were developed by autoradiography and scanned by Molecular Dynamics Image Scanner Storm 860 in the phosphor screen mode. Data were quantitatively analyzed by ImageQuant software.
# [2] = 3.7 fmol RNAP IIO, 7 pmol RAP74
molecule,measurement,setting,value
"SCP1: small CTD phosphatase-1, full-length 261 aa human protein, SEQ ID NO:2 (protein, listed as Homo sapiens) MDSSAVITQISKEEARGPLRGKGDQKSAASQKPRSRGILHSLFCCVCRDDGEALPAHSGAPLLVEENGAIPKTPVQYLLPEAKAQDSDKICVVIDLDETLVHSSFKPVNNADFIIPVEIDGVVHQVYVLKRPHVDEFLQRMGELFECVLFTASLAKYADPVADLLDKWGAFRARLFRESCVFHRGNYVKDLSRLGRDLRRVLILDNSPASYVFHPDNAVPVASWFDNMSDTELHDLLPFFEQLSRVDDVYSVLRQPRPGS",ligand-activated T3 receptor activity,[1],inhibited
same,dephosphorylation of RNAP IIO generated by Abl tyrosine kinase,RNAP IIO,unable to dephosphorylate
same,dephosphorylation of RNAP IIO generated by TFIIH,RNAP IIO; [2],most efficiently dephosphorylates
same,dephosphorylation of RNAP IIO prepared with Cdc2 kinase,RNAP IIO; [2],unable to dephosphorylate
same,"dephosphorylation of RNAP IIO isozymes prepared with P-TEFb, MAPK2/ERK2 and CTDK1/CTDK2",RNAP IIO; relative to RNAP IIO prepared with TFIIH,reduced rate
